{"source": "patent US8673856B2", "about": "(Anygen Co., Ltd., priority 2006, dated 2014)", "key": {"[1]": {"target": "T1, human N-type calcium channel (Homo sapiens, UniProt Q00975)", "T1 construct": "expressed in transfected cells; host or cells: HEK 293 (human embryonic kidney) cells", "format": "cell-based"}, "[2]": {"target": "T1, human N-type calcium channel", "format": "cell-based", "remark": "listed apart in the source"}}, "note": "No end group written: not given here.", "data": [{"substance": "CKGTGKSCSRLMYNCCTGSCRSGKC-NH2 (CKGTGKSCSRLMYNCCTGSCRSGKC-NH2; ends and bridges not checked) [FVIA[I11L, A12M], FVIA with Ile11 and Ala12 mutated to Leu and Met]", "values": [{"measurement": "Reversibility", "setting": "[1]", "result": "significantly reduced reversibility"}, {"measurement": "Calcium channel blocking activity", "setting": "[2]", "result": "calcium channel blocking activity similar to FVIA"}]}]}
